Columns and labels:
Test in all cases: SEC
[1] = target: His6 tagged recombinant pNL4-3-derived IN R262A/R263A/D256N/D270N (HIV-1 (NL4-3))
[2] = target: His6 tagged recombinant pNL4-3-derived IN R262A/R263A/D256R (HIV-1 (NL4-3))
[3] = target: His6 tagged recombinant pNL4-3-derived IN R269A/K273A/D256N/D270N (HIV-1 (NL4-3))
[4] = target: His6 tagged recombinant pNL4-3-derived IN R269A/K273A/D256R (HIV-1 (NL4-3))

His6 tagged recombinant pNL4-3-derived IN R262A/R263A/D256N/D270N (enzyme)
stoichiometry N [1]: 4

His6 tagged recombinant pNL4-3-derived IN R262A/R263A/D256R (enzyme)
stoichiometry N [2]: 4

His6 tagged recombinant pNL4-3-derived IN R269A/K273A/D256N/D270N (enzyme)
stoichiometry N [3]: 4

His6 tagged recombinant pNL4-3-derived IN R269A/K273A/D256R (enzyme)
stoichiometry N [4]: 4

Reference: doi:10.1101/2021.12.16.472884
